The chains are these.
B1: hRobo2 receptor ectodomain D4-D5 N426M (residues 311-509 of human Robo2) (receptor)
chain: RAPPQFVVRPRDQIVAQGRTVTFPCETKGNPQPAVFWQKEGSQNLLFPNQPQQPNSRCSVSPTGDLTITNIQRSDAGYYICQALTVAGSILAKAQLEVTDVLTDRPPPIILQGPAMQTLAVDGTALLKCKATGDPLPVISWLKEGFTFPGRDPRATIQEQGTLQIKNLRISDTGTYTCVATSSSGETSWSAVLDVTESG
modifications: additional 655 Da glycosylation found by mass spectroscopy (site not stated)
notes: also called WT hRobo2 D4-5; hRobo2 D4-D5 fragment; not shown: N-terminal FLAG tag of the modified pFastBac (pK503-9) vector; C-terminal hexahistidine tag

Data set [1] concerns the target hRobo2 receptor ectodomain D4-D5 L394R mutant (human) (UniProt Q9HCK4). Nature of the data set: sedimentation equilibrium analytical ultracentrifugation, self-association; total molecular weight of the monomer in the same row 24720 Da; the KD column of this row prints 'monomer'.
Data set [2] has as its target hRobo2 receptor ectodomain D4-D5 F357R mutant (human) (UniProt Q9HCK4). Nature of the data set: sedimentation equilibrium analytical ultracentrifugation, self-association; total molecular weight of the monomer in the same row 24686 Da; the KD column of this row prints 'monomer'.
For data set [3], the target named is Robo2 of mouse dorsal root ganglion explants (mouse) (UniProt Q7TPD3). The data set can be described thus: cell-based or functional assay.
Data set [4] concerns the molecule itself. Nature of the data set: SE-AUC, monomer-dimer fit, homodimerization in solution (10, 20 and 30 µM). How it is done:
All the sedimentation equilibrium experiments with hRobo2 receptor ectodomain D4-D5 constructs were performed using an XL-I analytical ultracentrifuge (Beckman-Coulter Inc.), with a UV-visible optics detection system, using an An60Ti rotor and 12-mm double sector centerpieces. Sedimentation curves were recorded and analyzed at 280 nm while spinning at 20° C. at 20,000 rpm in 10, 12, 14, and 20 hour time points, to assure that equilibrium was reached. Three concentrations (10, 20, and 30 μM) of WT hRobo2 receptor ectodomain D4-D5 (N426M) were measured. The F357R and L394R mutants were measured and analyzed in 20 μM. The molecular weight of WT hRobo2 receptor ectodomain D4-D5 fragment (N426M) was determined by mass spectroscopy using the Orbitrap Fusion Lumos with electron transfer dissociation (ETD), with both instrument and chromatography set up especially for the analysis of intact proteins. The recombinant protein includes an N′ terminal FLAG and C′ terminal 6XHis tags. […] The sedimentation coefficient distributions were calculated using SEDFIT and SEDPHAT (Gabrielson et al., 2007; Schuck et al., 2014).
The oligomeric state of hRobo2 receptor ectodomain D4-D5 in solution was determined by sedimentation equilibrium analytical ultracentrifugation (SE-AUC) (FIGS. 8A-8C). […]

In data set [5] the target is B1. Nature of the data set: apparent KD; ELISA binding assay, method of the fit not stated. For orientation: ELISA stands for enzyme-linked immunosorbent assay.

Sequence of Robo2 of mouse dorsal root ganglion explants (mouse) (Q7TPD3 22-1470): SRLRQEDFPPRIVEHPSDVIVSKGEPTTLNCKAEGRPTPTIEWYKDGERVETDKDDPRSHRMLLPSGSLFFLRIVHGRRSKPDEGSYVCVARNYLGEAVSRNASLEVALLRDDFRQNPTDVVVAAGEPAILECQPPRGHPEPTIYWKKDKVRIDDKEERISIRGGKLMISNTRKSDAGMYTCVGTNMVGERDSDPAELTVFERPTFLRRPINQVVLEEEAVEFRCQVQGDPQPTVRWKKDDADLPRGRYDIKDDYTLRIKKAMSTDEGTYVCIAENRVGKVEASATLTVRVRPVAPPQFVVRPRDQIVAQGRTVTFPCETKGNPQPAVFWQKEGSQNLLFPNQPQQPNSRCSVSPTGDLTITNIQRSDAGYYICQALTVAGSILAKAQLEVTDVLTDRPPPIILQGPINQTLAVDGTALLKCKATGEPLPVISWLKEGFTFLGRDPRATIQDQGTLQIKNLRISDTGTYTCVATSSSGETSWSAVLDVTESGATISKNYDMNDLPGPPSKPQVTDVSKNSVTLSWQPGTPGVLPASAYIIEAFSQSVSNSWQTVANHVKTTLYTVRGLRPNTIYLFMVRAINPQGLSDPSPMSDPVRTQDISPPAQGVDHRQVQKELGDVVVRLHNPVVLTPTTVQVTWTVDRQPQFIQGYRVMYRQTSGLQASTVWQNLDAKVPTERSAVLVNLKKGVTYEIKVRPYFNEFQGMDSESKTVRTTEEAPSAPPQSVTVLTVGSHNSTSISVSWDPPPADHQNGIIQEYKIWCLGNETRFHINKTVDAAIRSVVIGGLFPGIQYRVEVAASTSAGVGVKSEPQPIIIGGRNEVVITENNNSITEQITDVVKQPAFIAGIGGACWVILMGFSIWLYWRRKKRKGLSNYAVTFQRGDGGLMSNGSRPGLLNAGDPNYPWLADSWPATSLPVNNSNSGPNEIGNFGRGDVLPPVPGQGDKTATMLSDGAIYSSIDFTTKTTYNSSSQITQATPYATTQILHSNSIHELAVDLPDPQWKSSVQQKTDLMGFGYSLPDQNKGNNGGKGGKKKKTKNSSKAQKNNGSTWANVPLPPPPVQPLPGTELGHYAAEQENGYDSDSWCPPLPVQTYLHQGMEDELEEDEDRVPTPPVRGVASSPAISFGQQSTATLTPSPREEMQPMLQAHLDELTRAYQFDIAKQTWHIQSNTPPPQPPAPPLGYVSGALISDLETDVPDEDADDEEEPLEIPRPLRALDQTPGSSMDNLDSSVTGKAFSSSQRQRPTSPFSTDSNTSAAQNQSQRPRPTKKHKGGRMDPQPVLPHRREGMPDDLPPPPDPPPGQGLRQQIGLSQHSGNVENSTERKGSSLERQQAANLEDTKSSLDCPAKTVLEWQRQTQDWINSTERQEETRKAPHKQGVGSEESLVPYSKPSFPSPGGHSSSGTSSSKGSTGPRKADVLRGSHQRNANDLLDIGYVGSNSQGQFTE

In the case of “hRobo2 receptor ectodomain D4-D5 L394R mutant (from UniProt Q9HCK4 311-509)”, the global distribution (Da) sedimentation equilibrium in data set [1] turned out to be 24700 Da. Turning to “hRobo2 receptor ectodomain D4-D5 F357R mutant (from UniProt Q9HCK4 311-509)”, the global distribution (Da) sedimentation equilibrium in data set [2] is 24100 Da. In data set [3], “hSlitN2 (from UniProt O94813 31-1121) (ligand)” displayed a growth cone collapse of DRG explants 10 min after 5 nM SlitN2, without Fab of 60%. B1: the Kd in data set [4] was determined as 16.9 µM.

B2: Fab antibody fragment AbD32836.1 (Fab, V domains shown)
VH: EVQLVESGGGLVKPGGSLRLSCAASGFTFSSYALSWVRQAPGKGLEWVGHIKSKTDGGATEYAAPVKGRFTISRDDSKNTLYLQMNSLKTEDTAVYYCARSYSEYIPLYAFAVWGQGTLVTVSS
VL: DIVLTQPPSVSGAPGQRVTISCSGSSSNIGSKYVSWYQQLPGTAPKLLIYYTSQRPSGVPDRFSGSKSGTSASLAITGLQAEDEADYYCYAWDSTSTSTVFGGGTKLTVLG
notes: HuCAL phage display Fab from BioRad AbD Serotec, raised against hRobo2 D4-5; also called Fab AbD32836.1; Fab #AbD32836.1
For the molecule B2, the Kd in data set [5] was 0.18 µM.
